Laboratory results taken from US20130345115A1.

Tests used:
[1] = molecular target: (Δ1-28) H4 nucleosome (mononucleosome with FLAG-HA-tagged tailless human H4 lacking the first 28 amino acids) (human; human (293T cells)) (UniProt P62805); experiment: MudPIT, co-purification
[2] = molecular target: Wild type H4 nucleosome (mononucleosome with FLAG-HA-tagged wild type human H4) (human; human (293T cells)) (UniProt P62805); experiment: MudPIT, co-purification

ADP-ribosylation factor 1 (from UniProt P84077 2-181)
amino acid coverage [1]: 8.8%
peptide count [1]: 1 peptides

EuHMT1 (from UniProt Q9H9B1 2-1298) (enzyme)
peptide count [1]: 0 peptides
amino acid coverage [2]: 5.7%
peptide count [2]: 3 peptides

H1 histone family, member 0 (H1F0) (from UniProt P07305 2-194)
amino acid coverage [1]: 16.2%
peptide count [1]: 2 peptides
amino acid coverage [2]: 21.2%
peptide count [2]: 3 peptides

Histone H2A
amino acid coverage [1]: 74.1%
peptide count [1]: 6 peptides
amino acid coverage [2]: 63.1%
peptide count [2]: 5 peptides

Histone H2B
amino acid coverage [1]: 59.4%
peptide count [1]: 5 peptides
amino acid coverage [2]: 54.7%
peptide count [2]: 5 peptides

Histone H3
amino acid coverage [1]: 89.6%
peptide count [1]: 7 peptides
amino acid coverage [2]: 82.6%
peptide count [2]: 6 peptides

RAD23 homolog B (S. cerevisiae) (from UniProt P54727 1-409)
amino acid coverage [1]: 8.9%
peptide count [1]: 1 peptides

RuvB-like 1 (E. coli) (from UniProt Q9Y265 1-456)
amino acid coverage [1]: 21.3%
peptide count [1]: 8 peptides
amino acid coverage [2]: 19.1%
peptide count [2]: 7 peptides

RuvB-like 2 (E. coli) (from UniProt Q9Y230 2-463)
amino acid coverage [1]: 16.3%
peptide count [1]: 8 peptides
amino acid coverage [2]: 13.4%
peptide count [2]: 5 peptides

SWI/SNF complex 170 KDa subunit (from UniProt Q8TAQ2 1-1214)
amino acid coverage [2]: 4.3%
peptide count [2]: 3 peptides

SWI/SNF related, matrix associated, actin dependent regulator of chromatin, subfamily a, member 1 (from UniProt P28370 1-1042)
amino acid coverage [1]: 19.2%
peptide count [1]: 9 peptides
amino acid coverage [2]: 24.9%
peptide count [2]: 11 peptides

SWI/SNF related, matrix associated, actin dependent regulator of chromatin, subfamily a, member 5 (from UniProt O60264 2-1052)
amino acid coverage [1]: 28.3%
peptide count [1]: 13 peptides
amino acid coverage [2]: 20%
peptide count [2]: 9 peptides

Snf2-related CREBBP activator protein (from UniProt Q6ZRS2 1-3230)
amino acid coverage [1]: 1.9%
peptide count [1]: 3 peptides

TATA box binding protein-associated factor, 135 kDa (from UniProt O00268 1-1085)
amino acid coverage [2]: 6.6%
peptide count [2]: 5 peptides

WD repeat domain 77 (from UniProt Q9BQA1 1-342)
amino acid coverage [1]: 11.4%
peptide count [1]: 2 peptides

X-ray repair complementing defective repair in Chinese hamster cells 5 (from UniProt P13010 2-732)
amino acid coverage [1]: 5.3%
peptide count [1]: 2 peptides
amino acid coverage [2]: 4.4%
peptide count [2]: 2 peptides

X-ray repair complementing defective repair in Chinese hamster cells 6 (from UniProt P12956 2-609)
amino acid coverage [1]: 3.2%
peptide count [1]: 1 peptides
amino acid coverage [2]: 5.7%
peptide count [2]: 2 peptides

anti-silencing function 1 homolog B (from UniProt Q9NVP2 1-202)
amino acid coverage [1]: 18.8%
peptide count [1]: 2 peptides

chromatin assembly factor 1, subunit A (from UniProt Q13111 1-956)
amino acid coverage [1]: 4.9%
peptide count [1]: 3 peptides
amino acid coverage [2]: 5.5%
peptide count [2]: 3 peptides

chromobox homolog 1 (HP1 beta homolog Drosophila) (from UniProt P83916 1-185)
amino acid coverage [1]: 22.8%
peptide count [1]: 3 peptides
amino acid coverage [2]: 17.3%
peptide count [2]: 2 peptides

chromobox homolog 3 (HP1 gamma homolog, Drosophila) (from UniProt Q13185 2-183)
amino acid coverage [1]: 14.7%
peptide count [1]: 2 peptides
amino acid coverage [2]: 13.2%
peptide count [2]: 2 peptides

chromobox homolog 5 (HP1 alpha homolog, Drosophila) (from UniProt P45973 1-191)
amino acid coverage [1]: 21.4%
peptide count [1]: 3 peptides
amino acid coverage [2]: 21.4%
peptide count [2]: 3 peptides

chromodomain helicase DNA binding protein 4 (from UniProt Q14839 1-1912)
amino acid coverage [1]: 0.6%
peptide count [1]: 1 peptides
amino acid coverage [2]: 1.2%
peptide count [2]: 2 peptides

damage-specific DNA binding protein 1, 127 kDa (from UniProt Q16531 2-1140)
amino acid coverage [1]: 3.7%
peptide count [1]: 2 peptides
amino acid coverage [2]: 5.4%
peptide count [2]: 3 peptides

death-domain associated protein (from UniProt Q9UER7 1-740)
amino acid coverage [1]: 2.4%
peptide count [1]: 1 peptides

euchromatic histone-lysine N-methyltransferase 2 (G9a) (from UniProt Q96KQ7 2-1210) (enzyme)
peptide count [1]: 0 peptides
amino acid coverage [2]: 4%
peptide count [2]: 2 peptides

histone H2AX (from UniProt P16104 2-143)
amino acid coverage [1]: 8.4%
peptide count [1]: 1 peptides
amino acid coverage [2]: 13.7%
peptide count [2]: 2 peptides

histone cluster 1, H1a (HIST1H1A) (from UniProt Q02539 2-215)
amino acid coverage [1]: 11.8%
peptide count [1]: 2 peptides
amino acid coverage [2]: 11.2%
peptide count [2]: 2 peptides

histone cluster 1, H1b (HIST1H1B) (from UniProt P16401 2-226)
amino acid coverage [1]: 12.8%
peptide count [1]: 2 peptides
amino acid coverage [2]: 12.5%
peptide count [2]: 2 peptides

histone cluster 1, H1c (HIST1H1C) (from UniProt P16403 2-213)
amino acid coverage [1]: 12.3%
peptide count [1]: 2 peptides
amino acid coverage [2]: 10.3%
peptide count [2]: 2 peptides

histone cluster 1, H1d (HIST1H1D) (from UniProt P16402 2-221)
amino acid coverage [1]: 6.4%
peptide count [1]: 1 peptides
amino acid coverage [2]: 8.6%
peptide count [2]: 1 peptides

histone cluster 1, H1e (HIST1H1E) (from UniProt P10412 2-219)
amino acid coverage [1]: 11.8%
peptide count [1]: 2 peptides
amino acid coverage [2]: 6.2%
peptide count [2]: 1 peptides

histone deacetylase 1 (from UniProt Q13547 1-482) (enzyme)
peptide count [1]: 0 peptides
amino acid coverage [2]: 12.9%
peptide count [2]: 5 peptides

macroH2A1.1 and macroH2A1.2 (from UniProt O75367 1-369)
amino acid coverage [1]: 48.2%
peptide count [1]: 10 peptides
amino acid coverage [2]: 55.1%
peptide count [2]: 11 peptides

mediator of DNA-damage checkpoint 1 (from UniProt Q14676 1-2089)
amino acid coverage [1]: 18.4%
peptide count [1]: 4 peptides

metal response element binding transcription factor 2 (from UniProt Q9Y483 1-593)
amino acid coverage [2]: 4.6%
peptide count [2]: 2 peptides

methyl CpG binding protein 2 (Rett syndrome) (from UniProt P51608 1-486)
amino acid coverage [1]: 3.1%
peptide count [1]: 1 peptides
amino acid coverage [2]: 12.3%
peptide count [2]: 5 peptides

nucleolin (from UniProt P19338 2-710)
amino acid coverage [1]: 16.3%
peptide count [1]: 8 peptides
amino acid coverage [2]: 12%
peptide count [2]: 6 peptides

poly (ADP-ribose) polymerase 1 (from UniProt P09874 2-1014) (enzyme)
amino acid coverage [1]: 44.2%
peptide count [1]: 23 peptides
amino acid coverage [2]: 41.3%
peptide count [2]: 21 peptides

protein arginine methyltransferase 5 (from UniProt O14744 2-637) (enzyme)
amino acid coverage [1]: 23.8%
peptide count [1]: 9 peptides
amino acid coverage [2]: 21.8%
peptide count [2]: 9 peptides

remodeling and spacing factor 1 (from UniProt Q96T23 1-1441)
amino acid coverage [1]: 11.7%
peptide count [1]: 10 peptides
amino acid coverage [2]: 12.2%
peptide count [2]: 12 peptides

structure specific recognition protein 1 (from UniProt Q08945 2-709)
amino acid coverage [1]: 11.9%
peptide count [1]: 7 peptides
amino acid coverage [2]: 15.8%
peptide count [2]: 9 peptides

suppressor of Ty 16 homolog (S. cerevisiae) (from UniProt Q9Y5B9 2-1047)
amino acid coverage [1]: 21.6%
peptide count [1]: 12 peptides
amino acid coverage [2]: 17.2%
peptide count [2]: 12 peptides

suppressor of zeste 12 homolog (Drosophila) (from UniProt Q15022 1-739)
amino acid coverage [1]: 1.4%
peptide count [1]: 1 peptides
amino acid coverage [2]: 5.1%
peptide count [2]: 3 peptides

thyroid hormone receptor-associated protein complex component (from UniProt Q9Y2W1 2-955)
amino acid coverage [2]: 3.4%
peptide count [2]: 2 peptides

topoisomerase (DNA) I (from UniProt P11387 2-765) (enzyme)
amino acid coverage [1]: 4.2%
peptide count [1]: 3 peptides
amino acid coverage [2]: 7.4%
peptide count [2]: 5 peptides

transcription factor 20 (AR1) (from UniProt Q9UGU0 1-1960)
amino acid coverage [2]: 2.4%
peptide count [2]: 3 peptides
